Data taken from PMC5609118, “Purification and Characterization of Latent Polyphenol Oxidase from Apricot (Prunus armeniaca L.)” (Journal of Agricultural and Food Chemistry, 2017).
One block for each molecule: values may come before it.

Legend:
[1] = molecular target: T1, L-PaPPO (latent polyphenol oxidase from apricot) (Prunus armeniaca, UniProt O81103); experiment: quinone formation, absorbance, microplate reader; nonlinear regression; assay type: biochemical; details: 50 mM sodium citrate pH 4.5, 25 °C, no SDS; triphenol substrate; latent enzyme activated in the assay
T1 construct: gene PPO; native, purified from fruit; latent mature form Asp102-Ser597 (496 residues), transit peptide removed; 63 kDa by SDS-PAGE; no tag
Source text: (§1) quinone formation, absorbance, microplate reader; nonlinear regression on L-PaPPO (latent polyphenol oxidase from apricot)

[2] = molecular target: T1, L-PaPPO (latent polyphenol oxidase from apricot); experiment: inhibition of catechol oxidation, absorbance; assay type: biochemical; details: for activity at 1000 µM: read-out: 1 mM
Source text: inhibition of catechol oxidation, absorbance on L-PaPPO (latent polyphenol oxidase from apricot)

[3] = molecular target: T2, A-PaPPO (activated polyphenol oxidase from apricot) (Prunus armeniaca, UniProt O81103); experiment: in-gel activity staining, partially denaturing SDS-PAGE; assay type: biochemical; details: 0.2 M catechol, 50 mM sodium citrate pH 6.5, 25 °C
T2 construct: gene PPO; native, from fruit; C-terminal domain lost during storage at 4 °C; 38 kDa by SDS-PAGE
T2 sequence (O81103 102-429): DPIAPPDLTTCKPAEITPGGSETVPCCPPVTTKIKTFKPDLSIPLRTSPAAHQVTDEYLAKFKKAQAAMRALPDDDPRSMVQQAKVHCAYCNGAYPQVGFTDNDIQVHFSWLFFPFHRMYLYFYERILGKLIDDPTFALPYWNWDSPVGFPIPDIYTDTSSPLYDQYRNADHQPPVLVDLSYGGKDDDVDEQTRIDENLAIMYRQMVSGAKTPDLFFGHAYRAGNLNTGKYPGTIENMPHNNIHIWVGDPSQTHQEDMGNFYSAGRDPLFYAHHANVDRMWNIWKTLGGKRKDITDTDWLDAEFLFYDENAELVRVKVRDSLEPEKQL

purified protein = substrate: O=C(/C=C/c1ccc(O)c(O)c1)O[C@@H]1C[C@](O)(C(=O)O)C[C@@H](O)[C@H]1O; experiment: purified protein; details: 50 mM sodium citrate pH 4.5, 25 °C, no SDS, diphenolase, latent enzyme activated in the assay
[4] = substrate: Cc1ccc(O)c(O)c1; experiment: quinone formation, absorbance, microplate reader; nonlinear regression; assay type: biochemical, Prunus armeniaca; details: 50 mM sodium citrate pH 4.5, 25 °C, no SDS, diphenolase, latent enzyme activated in the assay
Source text: as §1

[5] = substrate: Oc1ccccc1O; experiment: as above; assay type: biochemical, Prunus armeniaca; details: 50 mM sodium citrate pH 4.5, 25 °C, no SDS, diphenolase, latent enzyme activated in the assay
Source text: as §1

Molecule: O=C(O)c1ccccc1 [benzoic acid]
activity at 1000 µM [2]: 41 ± 1.2%

Molecule: Oc1ccccc1O [catechol]
in-gel activity staining, partially denaturing SDS-PAGE [3]: single band was detected by in-gel enzymatic activity staining with catechol as substrate

Molecule: O=C(O)CCC(=O)O [succinic acid]
activity at 10000 µM ([2]; read-out: 10 mM): 89.1 ± 0.53%

B1: L-PaPPO (latent polyphenol oxidase from apricot) (Prunus armeniaca) (protein)
chain: DPIAPPDLTTCKPAEITPGGSETVPCCPPVTTKIKTFKPDLSIPLRTSPAAHQVTDEYLAKFKKAQAAMRALPDDDPRSMVQQAKVHCAYCNGAYPQVGFTDNDIQVHFSWLFFPFHRMYLYFYERILGKLIDDPTFALPYWNWDSPVGFPIPDIYTDTSSPLYDQYRNADHQPPVLVDLSYGGKDDDVDEQTRIDENLAIMYRQMVSGAKTPDLFFGHAYRAGNLNTGKYPGTIENMPHNNIHIWVGDPSQTHQEDMGNFYSAGRDPLFYAHHANVDRMWNIWKTLGGKRKDITDTDWLDAEFLFYDENAELVRVKVRDSLEPEKQLRYNYEPVSLPWLFTKPTARKTKNKTKAKVAATQLTSKFPATLVEVTTVEVARPKPRKRSKKEKVDEEELLIIKDIEFEGTEAVKFDVFINDDAESLSRRDKSEFAGSFVHVPQGKTTKAKTKTNLKLGITDLLEDLGAEDDSSVLVTLVPRVSNSPITIGGFKIEYSS
notes: native, purified from fruit; latent mature form Asp102-Ser597 (496 residues), transit peptide removed; 63 kDa by SDS-PAGE; no tag
Km (purified protein): 2.7 ± 0.16 mM
kcat (purified protein): 1400 s⁻¹
kcat/Km (purified protein): 500000 M⁻¹ s⁻¹
Km [4]: 2.0 ± 0.26 mM
kcat [4]: 700 ± 110 s⁻¹
kcat/Km [4]: 340000 ± 70000 M⁻¹ s⁻¹
Km [5]: 5.3 ± 0.60 mM
kcat [5]: 210 ± 30 s⁻¹
kcat/Km [5]: 40000 ± 10000 M⁻¹ s⁻¹

The next lines start with the values.

Km [1]: 11 ± 1.5 mM
Molecule: Oc1cccc(O)c1O [pyrogallol]

activity at 100 µM ([2]; read-out: 0.1 mM): 34 ± 1.4%
Molecule: CCCCCCc1ccc(O)cc1O [4-hexylresorcinol]

activity at 1000 µM [2]: 28 ± 1.1%
Molecule: O=c1cc(CO)occ1O [kojic acid]
